Biological target: Jak2 (UniProt O60674)
Experiment: phosphorylation enrichment, bacterial display (enrichment ratio); higher = better substrate or ligand; peptides without Tyr show the background
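Note: 11-residue human phosphosite peptides and single-mutation variants displayed on the E. coli surface, counted by deep sequencing, each peptide's frequency after selection divided by its frequency in the unselected input library; frequency after pTyr selection over input frequency; kinase dosed for 20-30% of maximal phosphorylation in three min.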

Chain of Jak2 (O60674 whole entry, looked up): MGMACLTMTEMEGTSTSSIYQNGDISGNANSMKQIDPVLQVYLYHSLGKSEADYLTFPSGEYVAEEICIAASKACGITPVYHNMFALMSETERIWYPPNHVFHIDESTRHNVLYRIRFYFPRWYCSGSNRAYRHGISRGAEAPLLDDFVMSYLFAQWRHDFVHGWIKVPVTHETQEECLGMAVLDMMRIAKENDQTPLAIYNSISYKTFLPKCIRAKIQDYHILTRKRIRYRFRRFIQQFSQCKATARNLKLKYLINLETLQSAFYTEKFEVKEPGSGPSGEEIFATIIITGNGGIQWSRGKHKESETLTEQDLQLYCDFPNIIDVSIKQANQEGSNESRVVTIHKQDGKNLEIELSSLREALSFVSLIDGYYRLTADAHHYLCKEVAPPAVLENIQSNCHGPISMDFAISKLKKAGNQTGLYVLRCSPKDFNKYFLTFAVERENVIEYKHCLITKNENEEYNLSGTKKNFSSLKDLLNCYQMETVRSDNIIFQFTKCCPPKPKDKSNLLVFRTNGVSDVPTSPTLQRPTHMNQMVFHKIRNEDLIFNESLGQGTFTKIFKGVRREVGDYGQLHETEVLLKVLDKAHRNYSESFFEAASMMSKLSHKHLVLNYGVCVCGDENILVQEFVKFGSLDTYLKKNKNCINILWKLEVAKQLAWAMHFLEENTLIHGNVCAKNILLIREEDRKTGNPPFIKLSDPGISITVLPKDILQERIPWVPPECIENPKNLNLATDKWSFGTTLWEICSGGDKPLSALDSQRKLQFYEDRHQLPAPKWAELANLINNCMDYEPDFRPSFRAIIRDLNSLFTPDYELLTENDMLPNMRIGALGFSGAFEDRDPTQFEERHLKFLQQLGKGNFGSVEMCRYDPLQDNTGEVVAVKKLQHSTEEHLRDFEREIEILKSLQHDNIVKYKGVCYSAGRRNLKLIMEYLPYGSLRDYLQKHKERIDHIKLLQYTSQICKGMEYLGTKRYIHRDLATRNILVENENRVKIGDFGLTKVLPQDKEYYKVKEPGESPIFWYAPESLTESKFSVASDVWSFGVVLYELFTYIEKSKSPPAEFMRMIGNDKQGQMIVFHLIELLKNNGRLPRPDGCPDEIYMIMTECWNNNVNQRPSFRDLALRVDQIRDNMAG

First: LNCIFYKDQTG [RS1_Y166_W163C_YF]
Second: KTKLGYSPLHQ [ANK1_Y735]
The phosphorylation enrichment of the first is higher: 2.06 for the first, 0.397 for the second.

Going from QNTGVYFDLFG [PTPN11_Y62_D61V_YF] to CKLYQYYLDHL [ATRX_Y1849], the phosphorylation enrichment falls from 1.95 to 1.54.

Compared with SDGHEYIFVDP [PDGFRB_Y579_YF], LHRAHYDLRHT [AHSG_Y314] is lower in phosphorylation enrichment: 1 for the first, 0.725 for the second.

Compared with ILGRYYERGSI [PAX5_Y73_T75R], EKLIQYCQSKG [AKR1B1_Y199] is higher in phosphorylation enrichment: 0.563 for the first, 0.573 for the second.

First: CRAVKYLQMVR [AVPR2_Y117_G122R]
Second: YGMQLYQNYMH [GRB14_Y347]
The phosphorylation enrichment of the first is higher: 1.2 for the first, 0.727 for the second.

Compared with PSSNLYFRCLT [CNGA3_Y168_W171C_YF], KMGNIYRTEYG [MRPL3_Y265] is lower in phosphorylation enrichment: 1.66 for the first, 0.577 for the second.

First: PLDGEHFTLQI [TP53_Y327_Y327H]
Second: RKKLFYKADGE [SERPINC1_Y272_E269K]
The phosphorylation enrichment of the first is higher: 1.43 for the first, 0.732 for the second.

Compared with SVTCPYSPALN [TP53_Y126_T125P], RRIYSYRGHLW [VHL_Y112_H110Y] is lower in phosphorylation enrichment: 1.17 for the first, 0.691 for the second.

Going from HLDRSYSFSFS [PEAR1_Y890_R885H_YF] to TRSYDYMEGGD [FGF7_Y58], the phosphorylation enrichment falls from 1.78 to 0.802.

Compared with KMLEKYKERLN [TLK2_Y259], KEINDYVEKGT [SERPINA1_Y184_Q180E] is lower in phosphorylation enrichment: 0.834 for the first, 0.75 for the second.

Compared with TNGFTCGSSHQ [MANEA_Y331_Y331C], IENKLYGMSDP [RET_Y1062] is lower in phosphorylation enrichment: 0.663 for the first, 0.617 for the second.

First: EHTILYSNNST [KANSL1_Y223_T221I]
Second: QCTSHYPEHVC [SART3_Y541_D540H]
The phosphorylation enrichment of the first is lower: 0.488 for the first, 0.766 for the second.

Going from YARECYSALPQ [SARS2_Y52_G51C] to ARVANYHRDGP [CAT_Y386_Q387H], the phosphorylation enrichment falls from 0.666 to 0.491.

Compared with GSETPYVDRTP [ESS2_Y335], GSTLSYGRDGR [MATR3_Y158_P154S] is lower in phosphorylation enrichment: 0.813 for the first, 0.452 for the second.

Going from KDFTIHNPNLL [VANGL1_Y290_Y290H] to GRQGIYKENER [GPR143_Y231_T232K], the phosphorylation enrichment falls from 0.654 to 0.515.

Going from IFHLSYLHNCE [PDE6B_Y227_YF] to VIVRMYDYHVL [RPF2_Y109_G106V], the phosphorylation enrichment rises from 0.956 to 0.975.

In the case of PSSNLYYRCLT [CNGA3_Y168_W171C], the phosphorylation enrichment is reported as 2.31.

Biological target: EPHB2 (UniProt P29323)
Sequence (P29323 whole entry, looked up): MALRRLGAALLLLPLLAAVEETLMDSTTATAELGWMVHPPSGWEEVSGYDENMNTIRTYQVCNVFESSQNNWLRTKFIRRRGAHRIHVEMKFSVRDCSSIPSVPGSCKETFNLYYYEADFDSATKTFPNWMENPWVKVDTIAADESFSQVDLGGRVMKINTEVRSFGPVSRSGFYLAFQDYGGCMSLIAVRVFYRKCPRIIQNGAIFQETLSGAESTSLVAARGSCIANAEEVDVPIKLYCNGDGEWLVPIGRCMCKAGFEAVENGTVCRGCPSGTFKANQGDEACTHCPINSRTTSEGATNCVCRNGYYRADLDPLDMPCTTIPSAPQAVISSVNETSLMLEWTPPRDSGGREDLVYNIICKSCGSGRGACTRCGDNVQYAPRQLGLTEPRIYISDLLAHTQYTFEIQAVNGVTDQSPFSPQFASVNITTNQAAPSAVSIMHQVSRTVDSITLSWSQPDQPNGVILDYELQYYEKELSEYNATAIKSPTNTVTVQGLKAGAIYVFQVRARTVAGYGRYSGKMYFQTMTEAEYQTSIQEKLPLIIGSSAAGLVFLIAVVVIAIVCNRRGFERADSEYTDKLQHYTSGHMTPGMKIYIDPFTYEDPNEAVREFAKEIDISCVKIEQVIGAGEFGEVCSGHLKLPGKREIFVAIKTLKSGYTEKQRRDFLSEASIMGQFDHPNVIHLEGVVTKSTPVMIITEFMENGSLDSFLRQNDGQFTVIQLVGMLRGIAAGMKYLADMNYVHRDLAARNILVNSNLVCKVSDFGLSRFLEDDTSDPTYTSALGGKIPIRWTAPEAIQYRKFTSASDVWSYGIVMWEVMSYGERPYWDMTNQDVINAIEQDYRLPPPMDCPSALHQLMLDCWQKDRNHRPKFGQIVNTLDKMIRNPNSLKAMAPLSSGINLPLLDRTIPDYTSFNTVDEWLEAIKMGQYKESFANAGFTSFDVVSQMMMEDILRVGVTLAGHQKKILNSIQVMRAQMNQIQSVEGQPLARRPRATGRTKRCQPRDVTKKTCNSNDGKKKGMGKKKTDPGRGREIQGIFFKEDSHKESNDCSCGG
Experiment: as above

First: LNCIFYKDQTG [RS1_Y166_W163C_YF]
Second: KTKLGYSPLHQ [ANK1_Y735]
The phosphorylation enrichment of the first is higher: 1.34 for the first, 0.326 for the second.

Going from QNTGVYFDLFG [PTPN11_Y62_D61V_YF] to CKLYQYYLDHL [ATRX_Y1849], the phosphorylation enrichment rises from 1.33 to 1.54.

Compared with SDGHEYIFVDP [PDGFRB_Y579_YF], LHRAHYDLRHT [AHSG_Y314] is higher in phosphorylation enrichment: 0.486 for the first, 0.78 for the second.

Compared with ILGRYYERGSI [PAX5_Y73_T75R], EKLIQYCQSKG [AKR1B1_Y199] is higher in phosphorylation enrichment: 0.531 for the first, 0.563 for the second.

Going from CRAVKYLQMVR [AVPR2_Y117_G122R] to YGMQLYQNYMH [GRB14_Y347], the phosphorylation enrichment rises from 0.467 to 12.4.

First: PSSNLYFRCLT [CNGA3_Y168_W171C_YF]
Second: KMGNIYRTEYG [MRPL3_Y265]
The phosphorylation enrichment of the first is higher: 0.809 for the first, 0.373 for the second.

Going from PLDGEHFTLQI [TP53_Y327_Y327H] to RKKLFYKADGE [SERPINC1_Y272_E269K], the phosphorylation enrichment falls from 0.632 to 0.579.

First: SVTCPYSPALN [TP53_Y126_T125P]
Second: RRIYSYRGHLW [VHL_Y112_H110Y]
The phosphorylation enrichment of the first is lower: 0.573 for the first, 0.659 for the second.

Going from HLDRSYSFSFS [PEAR1_Y890_R885H_YF] to TRSYDYMEGGD [FGF7_Y58], the phosphorylation enrichment falls from 0.658 to 0.593.

Compared with KMLEKYKERLN [TLK2_Y259], KEINDYVEKGT [SERPINA1_Y184_Q180E] is higher in phosphorylation enrichment: 0.5 for the first, 0.56 for the second.

First: TNGFTCGSSHQ [MANEA_Y331_Y331C]
Second: IENKLYGMSDP [RET_Y1062]
The phosphorylation enrichment of the first is lower: 0.486 for the first, 0.653 for the second.

First: EHTILYSNNST [KANSL1_Y223_T221I]
Second: QCTSHYPEHVC [SART3_Y541_D540H]
The phosphorylation enrichment of the first is lower: 0.454 for the first, 0.747 for the second.

Going from YARECYSALPQ [SARS2_Y52_G51C] to ARVANYHRDGP [CAT_Y386_Q387H], the phosphorylation enrichment falls from 0.868 to 0.378.

First: GSETPYVDRTP [ESS2_Y335]
Second: GSTLSYGRDGR [MATR3_Y158_P154S]
The phosphorylation enrichment of the first is higher: 0.477 for the first, 0.343 for the second.

Compared with KDFTIHNPNLL [VANGL1_Y290_Y290H], GRQGIYKENER [GPR143_Y231_T232K] is higher in phosphorylation enrichment: 0.366 for the first, 0.375 for the second.

Going from IFHLSYLHNCE [PDE6B_Y227_YF] to VIVRMYDYHVL [RPF2_Y109_G106V], the phosphorylation enrichment rises from 0.566 to 3.26.

PSSNLYYRCLT [CNGA3_Y168_W171C] gave a phosphorylation enrichment of 0.78.

Biological target: Hck (UniProt P08631)
Sequence (P08631 whole entry, looked up): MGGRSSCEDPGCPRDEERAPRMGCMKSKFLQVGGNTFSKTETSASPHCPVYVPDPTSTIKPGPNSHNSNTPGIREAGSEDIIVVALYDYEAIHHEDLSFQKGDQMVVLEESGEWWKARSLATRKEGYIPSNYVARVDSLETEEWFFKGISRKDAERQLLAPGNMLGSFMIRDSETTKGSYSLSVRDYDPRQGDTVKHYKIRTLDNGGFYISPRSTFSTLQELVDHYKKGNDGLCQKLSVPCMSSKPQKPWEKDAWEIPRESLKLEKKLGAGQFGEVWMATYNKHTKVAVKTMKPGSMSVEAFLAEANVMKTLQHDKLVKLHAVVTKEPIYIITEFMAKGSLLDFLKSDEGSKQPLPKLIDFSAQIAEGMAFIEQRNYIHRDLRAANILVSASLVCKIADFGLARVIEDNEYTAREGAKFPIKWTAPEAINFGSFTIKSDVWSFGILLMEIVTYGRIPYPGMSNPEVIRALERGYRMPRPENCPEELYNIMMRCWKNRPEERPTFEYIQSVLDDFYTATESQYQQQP
Experiment: as above

Compared with LNCIFYKDQTG [RS1_Y166_W163C_YF], KTKLGYSPLHQ [ANK1_Y735] is lower in phosphorylation enrichment: 0.774 for the first, 0.322 for the second.

Going from QNTGVYFDLFG [PTPN11_Y62_D61V_YF] to CKLYQYYLDHL [ATRX_Y1849], the phosphorylation enrichment falls from 3.34 to 0.698.

Going from SDGHEYIFVDP [PDGFRB_Y579_YF] to LHRAHYDLRHT [AHSG_Y314], the phosphorylation enrichment rises from 0.43 to 0.876.

Compared with ILGRYYERGSI [PAX5_Y73_T75R], EKLIQYCQSKG [AKR1B1_Y199] is lower in phosphorylation enrichment: 0.495 for the first, 0.446 for the second.

Compared with CRAVKYLQMVR [AVPR2_Y117_G122R], YGMQLYQNYMH [GRB14_Y347] is higher in phosphorylation enrichment: 0.417 for the first, 4.84 for the second.

Compared with PSSNLYFRCLT [CNGA3_Y168_W171C_YF], KMGNIYRTEYG [MRPL3_Y265] is lower in phosphorylation enrichment: 0.88 for the first, 0.477 for the second.

First: PLDGEHFTLQI [TP53_Y327_Y327H]
Second: RKKLFYKADGE [SERPINC1_Y272_E269K]
The phosphorylation enrichment of the first is higher: 0.786 for the first, 0.657 for the second.

Going from SVTCPYSPALN [TP53_Y126_T125P] to RRIYSYRGHLW [VHL_Y112_H110Y], the phosphorylation enrichment rises from 0.616 to 0.667.

Going from HLDRSYSFSFS [PEAR1_Y890_R885H_YF] to TRSYDYMEGGD [FGF7_Y58], the phosphorylation enrichment falls from 0.726 to 0.488.

Compared with KMLEKYKERLN [TLK2_Y259], KEINDYVEKGT [SERPINA1_Y184_Q180E] is higher in phosphorylation enrichment: 0.492 for the first, 0.515 for the second.

Compared with TNGFTCGSSHQ [MANEA_Y331_Y331C], IENKLYGMSDP [RET_Y1062] is higher in phosphorylation enrichment: 0.477 for the first, 0.732 for the second.

Compared with EHTILYSNNST [KANSL1_Y223_T221I], QCTSHYPEHVC [SART3_Y541_D540H] is higher in phosphorylation enrichment: 0.43 for the first, 0.633 for the second.

First: YARECYSALPQ [SARS2_Y52_G51C]
Second: ARVANYHRDGP [CAT_Y386_Q387H]
The phosphorylation enrichment of the first is higher: 3.13 for the first, 0.36 for the second.

Compared with GSETPYVDRTP [ESS2_Y335], GSTLSYGRDGR [MATR3_Y158_P154S] is lower in phosphorylation enrichment: 0.429 for the first, 0.376 for the second.

Compared with KDFTIHNPNLL [VANGL1_Y290_Y290H], GRQGIYKENER [GPR143_Y231_T232K] is higher in phosphorylation enrichment: 0.392 for the first, 0.484 for the second.

First: IFHLSYLHNCE [PDE6B_Y227_YF]
Second: VIVRMYDYHVL [RPF2_Y109_G106V]
The phosphorylation enrichment of the first is lower: 0.512 for the first, 0.587 for the second.

For PSSNLYYRCLT [CNGA3_Y168_W171C], the phosphorylation enrichment was 1.89.

Biological target: Fes (UniProt P07332)
Sequence (P07332 whole entry, looked up): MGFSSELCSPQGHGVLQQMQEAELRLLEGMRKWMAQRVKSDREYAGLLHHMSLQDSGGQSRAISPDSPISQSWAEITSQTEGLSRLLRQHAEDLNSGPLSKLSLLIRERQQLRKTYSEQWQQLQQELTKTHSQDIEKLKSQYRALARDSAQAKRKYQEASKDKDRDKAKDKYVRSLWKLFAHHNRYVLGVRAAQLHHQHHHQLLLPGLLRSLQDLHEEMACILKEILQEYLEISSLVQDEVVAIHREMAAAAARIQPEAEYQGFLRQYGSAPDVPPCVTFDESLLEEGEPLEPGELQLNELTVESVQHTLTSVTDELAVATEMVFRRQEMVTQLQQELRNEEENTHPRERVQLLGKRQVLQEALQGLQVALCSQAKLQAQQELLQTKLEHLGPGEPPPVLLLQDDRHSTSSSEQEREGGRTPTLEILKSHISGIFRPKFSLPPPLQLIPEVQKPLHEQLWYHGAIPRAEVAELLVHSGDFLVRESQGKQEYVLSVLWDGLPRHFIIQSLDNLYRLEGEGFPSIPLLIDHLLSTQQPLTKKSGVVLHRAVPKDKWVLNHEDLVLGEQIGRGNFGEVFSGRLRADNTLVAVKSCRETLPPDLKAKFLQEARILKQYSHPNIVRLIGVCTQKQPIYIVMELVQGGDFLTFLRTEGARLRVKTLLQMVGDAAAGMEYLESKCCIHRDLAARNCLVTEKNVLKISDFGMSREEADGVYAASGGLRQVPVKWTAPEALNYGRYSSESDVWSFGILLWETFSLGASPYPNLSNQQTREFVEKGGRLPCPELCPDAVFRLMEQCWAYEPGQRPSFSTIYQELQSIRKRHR
Experiment: as above

Compared with LNCIFYKDQTG [RS1_Y166_W163C_YF], KTKLGYSPLHQ [ANK1_Y735] is lower in phosphorylation enrichment: 2.08 for the first, 0.48 for the second.

First: QNTGVYFDLFG [PTPN11_Y62_D61V_YF]
Second: CKLYQYYLDHL [ATRX_Y1849]
The phosphorylation enrichment of the first is lower: 1.52 for the first, 1.65 for the second.

Compared with SDGHEYIFVDP [PDGFRB_Y579_YF], LHRAHYDLRHT [AHSG_Y314] is higher in phosphorylation enrichment: 0.811 for the first, 1.11 for the second.

First: ILGRYYERGSI [PAX5_Y73_T75R]
Second: EKLIQYCQSKG [AKR1B1_Y199]
The phosphorylation enrichment of the first is higher: 0.726 for the first, 0.644 for the second.

Going from CRAVKYLQMVR [AVPR2_Y117_G122R] to YGMQLYQNYMH [GRB14_Y347], the phosphorylation enrichment rises from 0.878 to 1.02.

First: PSSNLYFRCLT [CNGA3_Y168_W171C_YF]
Second: KMGNIYRTEYG [MRPL3_Y265]
The phosphorylation enrichment of the first is higher: 1.63 for the first, 0.701 for the second.

Compared with PLDGEHFTLQI [TP53_Y327_Y327H], RKKLFYKADGE [SERPINC1_Y272_E269K] is lower in phosphorylation enrichment: 1.87 for the first, 0.648 for the second.

Going from SVTCPYSPALN [TP53_Y126_T125P] to RRIYSYRGHLW [VHL_Y112_H110Y], the phosphorylation enrichment rises from 1.29 to 1.68.

Going from HLDRSYSFSFS [PEAR1_Y890_R885H_YF] to TRSYDYMEGGD [FGF7_Y58], the phosphorylation enrichment falls from 2.08 to 1.03.

First: KMLEKYKERLN [TLK2_Y259]
Second: KEINDYVEKGT [SERPINA1_Y184_Q180E]
The phosphorylation enrichment of the first is lower: 0.789 for the first, 0.954 for the second.

Going from TNGFTCGSSHQ [MANEA_Y331_Y331C] to IENKLYGMSDP [RET_Y1062], the phosphorylation enrichment rises from 0.836 to 0.988.

First: EHTILYSNNST [KANSL1_Y223_T221I]
Second: QCTSHYPEHVC [SART3_Y541_D540H]
The phosphorylation enrichment of the first is lower: 0.662 for the first, 0.991 for the second.

Going from YARECYSALPQ [SARS2_Y52_G51C] to ARVANYHRDGP [CAT_Y386_Q387H], the phosphorylation enrichment falls from 0.972 to 0.514.

Going from GSETPYVDRTP [ESS2_Y335] to GSTLSYGRDGR [MATR3_Y158_P154S], the phosphorylation enrichment falls from 0.821 to 0.516.

Going from KDFTIHNPNLL [VANGL1_Y290_Y290H] to GRQGIYKENER [GPR143_Y231_T232K], the phosphorylation enrichment falls from 0.829 to 0.722.

Going from IFHLSYLHNCE [PDE6B_Y227_YF] to VIVRMYDYHVL [RPF2_Y109_G106V], the phosphorylation enrichment falls from 1.26 to 1.04.

PSSNLYYRCLT [CNGA3_Y168_W171C] was tested, and the phosphorylation enrichment was 1.06.

Source: the supplement of paper PMC10065799, “High-throughput profiling of sequence recognition by tyrosine kinases and SH2 domains using bacterial peptide display” (eLife, 2023)
